The test concerns the target human Aβ antigen (human). The test can be described thus: cell-based or functional assay.

Substitutions are numbered along the chain they refer to.

Chain of human Aβ antigen (human) (peptide, as listed by the source): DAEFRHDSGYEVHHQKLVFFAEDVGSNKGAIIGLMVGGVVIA

B1: 066-4.26.14 (antibody, V domains shown)
VH: EVKLVESGGGLVKPGGSLKLSCAASGFTFRSYAMSWVRQTPEKRLEWVASISTTSNTYYPDSVKGRFTTSRDNARNIVYLQMSSLRSDDTAMYYCGRGVITNQAWFAYWGQGTLVTVSA
VL: DIVLTQSPATLSVTPGDSVSLSCRASQSISNNLHWYQQKSHESPRLLIKYASQSISGIPSRFSGSGSGTDFTLSVNNVGTEDFGMYFCQQSNSWPLTFGAGTKLELK
On to B1, for which the “relative fluorescence intensity (ThT, Aβ polymerization; hIgG = 1.00)” value (from here on “relative fluorescence intensity”) was found to be 0.7 and the “relative value of LDH release (SHSY5Y cells with Aβ; hIgG = 1.00)” value (“relative value of LDH release” for short) was found to be 1.2.

B2: 066-4.26.14H2L3 (antibody, V domains shown)
VH: B1 VH with K3Q, K19R, R75K, I77S, S87A, D88E, M92V, L114T, A119S
VL: DIVLTQSPDFQSVTPKEKVTISCRASQSISNNLHWYQQKPDQSPKLLIKYASQSISGIPSRFSGSGSGTDFTLTINSLEAEDAAAYFCQQSNSWPLTFGPGTKVEIK
In the case of B2, the “relative fluorescence intensity” value came out at 0.67 and the “relative value of LDH release” value is 1.42.

B3: mouse-human chimeric antibody 066-4.26.14-chAb (antibody, human IgG1, kappa, V domains shown)
VH: B1 VH
VL: DIVLTQSPATLSVTPGDSVSLSCRASQSISNNLHWYQQKSHESPRLLIKYASQSISGIPSRFSGSGSGTDFTLSVNNVGTEDFGMYFCQQSNSWPLTFGAGTKLELKR
B3: the “relative fluorescence intensity” value stood at 0.71 and the “relative value of LDH release” value was 1.32.

B4: 066-4.26.14H5L3 (antibody, V domains shown)
VH: EVQLVESGGGLVQPGGSLRLSCVASGFTFRSYAMSWVRQAPGKGLEWVASISTTSNTYYPDSVKGRFTTSRDNSKNTVYLQMSSLRAEDTAVYYCGRGVITNQAWFAYWGQGTLVTVSS
VL: B2 VL
With B4, the “relative fluorescence intensity” value was found to be 0.78 and the “relative value of LDH release” value stood at 1.41.

B5: 066-4.26.14H5L2 (antibody, V domains shown)
VH: B4 VH
VL: DIVLTQSPATLSVSPGERATLSCRASQSISNNLHWYQQKPGQAPRLLIKYASQSISGIPARFSGSGSGTDFTLTISSLQSEDFAVYFCQQSNSWPLTFGGGTKVEIK
For B5, the “relative fluorescence intensity” value is 0.67 and the “relative value of LDH release” value is 1.26.

B6: 066-4.26.14H2L2 (antibody, V domains shown)
VH: B4 VH with Q13K, V23A, A40T, G42E, G44R, S74A, T77S, L114T
VL: B5 VL
In the case of B6, the “relative fluorescence intensity” value was found to be 0.62 and the “relative value of LDH release” value was 1.41.

B7: 066-4.26.14H4L2 (antibody, V domains shown)
VH: B4 VH with V23A, S74A, T77S, A87D, V92M, T113I
VL: B5 VL
As to B7, the “relative fluorescence intensity” value turned out to be 0.7 and the “relative value of LDH release” value stood at 1.3.

B8: 066-4.26.14H5L1 (antibody, V domains shown)
VH: B4 VH
VL: B5 VL with A19V, P40S, A60S, K103Q
Turning to B8, the “relative fluorescence intensity” value is 0.68 and the “relative value of LDH release” value was found to be 1.37.

(Values after patent publication US20220242937A1 (CHANGCHUN GENESCIENCE PHARMACEUTICAL, published 2022).)
